Laboratory results published in publication PMC8118686, “Identification of a RAD52 Inhibitor Inducing Synthetic Lethality in BRCA2-Deficient Cancer Cells” (Frontiers in Pharmacology, 2021).

Target: the molecule itself
Test: cross-linking; called EMSA by the paper: 1 uM 6His-RAD52 in 25 mM HEPES pH 7.5, 1 mM DTT, 10 mM MgCl2, 150 mM NaCl, 0.1 mg/ml BSA, 37 °C; with or without 400 uM 50-nt ssDNA oligo and 100 uM C791-0064; 0.1% glutaraldehyde 3 min; 4-20% SDS-PAGE, Western blot with anti-Histag

B1: Human 6His-RAD52 protein (natural protein, UniProt P43351 1-418, looked up)
chain: MSGTEEAILGGRDSHPAAGGGSVLCFGQCQYTAEEYQAIQKALRQRLGPEYISSRMAGGGQKVCYIEGHRVINLANEMFGYNGWAHSITQQNVDFVDLNNGKFYVGVCAFVRVQLKDGSYHEDVGYGVSEGLKSKALSLEKARKEAVTDGLKRALRSFGNALGNCILDKDYLRSLNKLPRQLPLEVDLTKAKRQDLEPSVEEARYNSCRPNMALGHPQLQQVTSPSRPSHAVIPADQDCSSRSLSSSAVESEATHQRKLRQKQLQQQFRERMEKQQVRVSTPSAEKSEAAPPAPPVTHSTPVTVSEPLLEKDFLAGVTQELIKTLEDNSEKWAVTPDAGDGVVKPSSRADPAQTSDTLALNNQMVTQNRTPHSVCHQKPQAKSGSWDLQTYSADQRTTGNWESHRKSQDMKKRKYDPS
notes: RAD52, human; The size of the oligomer is not measured here; heptamer is only cited
binding result: binds
